In assay [1] the target is T1, CD20-P172W (human, UniProt P11836 1-297).
T1 construct: also called P172W mutated CD20
T1 sequence: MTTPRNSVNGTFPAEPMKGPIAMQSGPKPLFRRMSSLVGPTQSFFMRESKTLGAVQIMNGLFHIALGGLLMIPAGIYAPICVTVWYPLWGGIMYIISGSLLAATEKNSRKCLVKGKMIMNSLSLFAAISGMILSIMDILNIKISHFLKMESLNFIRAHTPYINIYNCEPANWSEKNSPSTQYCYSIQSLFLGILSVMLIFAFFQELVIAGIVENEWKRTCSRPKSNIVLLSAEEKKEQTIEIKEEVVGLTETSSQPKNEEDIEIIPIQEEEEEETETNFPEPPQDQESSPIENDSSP
In words: flow cytometry staining of transfected 293T cells.

The target in assay [2] is T2, amino-terminal (endodomain) truncate of CD20 (human, UniProt P11836 42-297).
T2 construct: Expressed on transfected 293T cells, fused or co-expressed with eGFP (the text and the legend differ); As expressed in dCD20-FAS, the construct carries an extra N-terminal MG; also called dCD20
T2 sequence: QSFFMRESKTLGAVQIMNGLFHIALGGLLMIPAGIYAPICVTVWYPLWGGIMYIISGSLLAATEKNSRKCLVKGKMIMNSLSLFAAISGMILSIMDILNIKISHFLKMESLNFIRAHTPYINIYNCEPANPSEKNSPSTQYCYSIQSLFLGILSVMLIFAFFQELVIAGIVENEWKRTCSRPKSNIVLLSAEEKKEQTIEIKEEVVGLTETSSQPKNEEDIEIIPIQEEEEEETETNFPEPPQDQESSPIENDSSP
In words: flow cytometry, transfected 293T cells. The text has this:
(§1) To this end: full-length CD20; an amino-terminal (endodomain) truncate of CD20; and a carboxy-terminal (endodomain) truncate of CD20 were each fused with eGFP.

Assay [3] addresses T3, carboxy-terminal (endodomain) truncate of CD20 (human, UniProt P11836 2-236).
T3 construct: Expressed on transfected 293T cells, fused or co-expressed with eGFP (the text and the legend differ); also called CD20d
T3 sequence: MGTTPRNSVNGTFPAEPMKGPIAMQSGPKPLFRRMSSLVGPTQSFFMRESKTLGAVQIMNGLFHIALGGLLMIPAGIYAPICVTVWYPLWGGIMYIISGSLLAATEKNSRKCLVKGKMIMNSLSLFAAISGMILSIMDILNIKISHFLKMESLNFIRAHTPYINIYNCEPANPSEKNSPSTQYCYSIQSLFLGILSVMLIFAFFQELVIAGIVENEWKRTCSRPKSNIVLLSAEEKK
The assay is described as follows: flow cytometry, transfected 293T cells.
Text: as §1

B1: Rituximab (antibody, V domains shown)
VH: QVQLQQPGAELVKPGASVKMSCKASGYTFTSYNMHWVKQTPGRGLEWIGAIYPGNGDTSYNQKFKGKATLTADKSSSTAYMQLSSLTSEDSAVYYCARSTYYGGDWYFNVWGAGTTVTVS
VL: QIVLSQSPAILSASPGEKVTMTCRASSSVSYIHWFQQKPGSSPKPWIYATSNLASGVPVRFSGSGSGTSYSLTISRVEAEDAATYYCQQWTSNPPTFGGGTKLEIKR
notes: also called Rituxumab; Rituxan
On to B1, for which the binding result in assay [1] is “no binding”; in assay [2], “binds”; in assay [3] it was “binds”.
